In experiment [1] the target is T1, Recombinant human FcRn (soluble) (human, UniProt P55899 24-297; P61769 21-119, biotin (biotinylated FcRn; which chain and site not stated)). The experiment in a line: BLI; Octet384; biotinylated FcRn captured on streptavidin biosensors, Fc variants in solution; 100 mM MES pH 6.0, 3 mg/ml BSA, 0.05% Tween 20; steady-state analysis, apparent KD, avidity binding format.

The target in experiment [2] is Clone 4 (C4), monomeric IgG4 Fc with YTE. The experiment in a line: BLI; Octet384; binding of inactive IdeS (C94S) to Fc; who was immobilised not told.
Experiment [3] addresses T1, Recombinant human FcRn (soluble). The experiment in a line: cell-based or functional assay.

Like-named read-outs stand apart in the source and are kept apart here.

T1 sequence (P55899 24-297, chain 1 of 2): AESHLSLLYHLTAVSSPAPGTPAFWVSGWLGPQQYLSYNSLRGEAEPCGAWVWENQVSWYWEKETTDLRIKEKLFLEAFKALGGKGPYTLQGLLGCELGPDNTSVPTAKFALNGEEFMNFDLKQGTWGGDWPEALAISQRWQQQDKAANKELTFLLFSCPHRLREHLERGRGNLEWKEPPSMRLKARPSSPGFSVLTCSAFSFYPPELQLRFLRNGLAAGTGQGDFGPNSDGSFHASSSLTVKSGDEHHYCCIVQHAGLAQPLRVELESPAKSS
T1 sequence (P61769 21-119, chain 2 of 2): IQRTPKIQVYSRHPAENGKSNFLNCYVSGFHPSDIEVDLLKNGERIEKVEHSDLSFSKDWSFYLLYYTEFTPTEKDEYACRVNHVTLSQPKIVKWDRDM

As to IgG1 YTE (antibody), the Kd in experiment [1] turned out to be 39 nM.

As to IgG1 mAb control (antibody), the Kd in experiment [1] was determined as 270 nM.

Regarding IgG4 wildtype Fc (domain or fragment), the Kd in experiment [1] came to 140 nM.

In experiment [2], “Inactive form of IgG-degrading enzyme of S. pyogenes (IdeS, C94S)” showed a Kd of 3000 nM.

B1: Onart-Fab-C4 (Fab of Onartuzumab fused to monomeric Fc C4) (Fc fusion)
chain 1: EVQLVESGGGLVQPGGSLRLSCAASGYTFTSYWLHWVRQAPGKGLEWVGMIDPSNSDTRFNPNFKDRFTISADTSKNTAYLQMNSLRAEDTAVYYCATYRSYVTPLDYWGQGTLVTVSSASTKGPSVFPLAPSSKSTSGGTAALGCLVKDYFPEPVTVSWNSGALTSGVHTFPAVLQSSGLYSLSSVVTVPSSSLGTQTYICNVNHKPSNTKVDKKVEPKSCPEFLGGPSVFLFPPKPKDTLYITREPEVTCVVVDVSQEDPEVQFNWYVDGVEVHNAKTKPREEQFNSTYRVVSVLTVLHQDWLNGKEYKCKVSNKGLPSSIEKTISKAKGQPREPQVYTFPPSQEEMTKNQVSLRCLVKGFYPSDIAVEWESNGQPENNYKTTKPVLDSDGSFRLESRLTVDKSRWQEGNVFSCSVMHEALHNHYTQKSLSLSLGK
chain 2: DIQMTQSPSSLSASVGDRVTITCKSSQSLLYTSSQKNYLAWYQQKPGKAPKLLIYWASTRESGVPSRFSGSGSGTDFTLTISSLQPEDFATYYCQQYYAYPWTFGQGTKVEIKRTVAAPSVFIFPPSDEQLKSGTASVVCLLNNFYPREAKVQWKVDNALQSGNSQESVTEQDSKDSTYSLSSTLTLSKADYEKHKVYACEVTHQGLSSPVTKSFNRGEC
Turning to B1, the “terminal half-life (T1/2) in hFcRn transgenic mice, 2.5 mg/kg intravenous” value in experiment [3] was 21 h. For the same molecule, the Kd in experiment [1] (both partners purified) came out at 160 nM.
